Kd data for one substance are collected here from publication PMC6441497.

This data set concerns Pho4 (yeast). As to the kind of experiment: EMSA. Particulars: EMSA: 10 mM Tris-HCl pH 7.6, 1 mM MgCl2, 60 mM KCl, 3 mg/ml BSA, 1% glycerol, 1% Ficoll, 1 mM DTT, 1 ug poly(dI-dC), 100 ng calf thymus DNA, 20 ul, 10 min …. Background: Mobility shift assays separate free from complexed probe on a gel.

On to 601 free DNA with Pho4 site, for which the equilibrium dissociation constant (Kd) came to 0.24 µM.

As a reminder, the Kd is the equilibrium constant for the complex coming apart.
